Assay results from patent US20240199759A1 (CYTOVIA THERAPEUTICS, published 2024).

Assays:
[1] = target: T1, Human NKp46 antigen (Acro Biosystems) expressed on HEK293 cells or CHO cells (human, UniProt O76036 22-255); assay: ELISA on coated human NKp46 antigen, normalized binding curve
T1 construct: Bought

[2] = target: human GPC3 (form in the assay not stated) (human, UniProt P51654 25-559, limits assumed); assay: method not stated
[3] = target: T2, human NKp46 (form in the assay not stated) (human, UniProt O76036 22-255, limits assumed); assay: BIAcore
T2 sequence (O76036 22-255 limits assumed): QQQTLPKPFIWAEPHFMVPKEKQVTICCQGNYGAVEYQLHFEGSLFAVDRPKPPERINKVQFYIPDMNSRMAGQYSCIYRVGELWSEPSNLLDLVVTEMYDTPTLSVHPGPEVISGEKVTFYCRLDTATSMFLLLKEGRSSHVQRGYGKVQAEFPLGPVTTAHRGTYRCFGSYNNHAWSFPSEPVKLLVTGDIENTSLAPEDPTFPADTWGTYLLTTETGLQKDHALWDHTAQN

[4] = target: T2, human NKp46 (form in the assay not …); assay: BIAcore; SE(KD) 2.20E-10

T1 sequence (O76036 22-255 limits assumed): as above
Sequence of human GPC3 (form in the assay not stated) (P51654 25-559 limits assumed): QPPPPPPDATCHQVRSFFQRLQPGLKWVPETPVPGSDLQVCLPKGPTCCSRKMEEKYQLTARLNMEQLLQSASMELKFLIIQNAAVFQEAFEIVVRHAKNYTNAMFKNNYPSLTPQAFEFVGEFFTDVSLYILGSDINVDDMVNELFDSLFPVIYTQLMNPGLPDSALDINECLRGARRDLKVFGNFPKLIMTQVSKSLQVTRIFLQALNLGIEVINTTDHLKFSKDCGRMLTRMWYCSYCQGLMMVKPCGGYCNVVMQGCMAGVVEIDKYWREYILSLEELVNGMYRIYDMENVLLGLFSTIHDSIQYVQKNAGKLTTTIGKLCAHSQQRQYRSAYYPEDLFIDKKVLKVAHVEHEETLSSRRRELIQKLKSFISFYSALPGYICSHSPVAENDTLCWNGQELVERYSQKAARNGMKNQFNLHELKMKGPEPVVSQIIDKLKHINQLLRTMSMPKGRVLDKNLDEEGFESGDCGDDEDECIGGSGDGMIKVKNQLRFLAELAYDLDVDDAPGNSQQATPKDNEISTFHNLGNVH

B1: humanized 09 anti-NKp46 antibody (antibody, IgG4, V domains shown)
VH: EVQLQQSGAEVKKPGSSVKVSCKTSGYTFTEYSMHWVRQAPGKSLEWFGGISPNSGGTSYNQKFKGRATLTVDKSSSTAYMELSSLRSEDTAVYYCARRDFHSSFDYWGQGTTVTVSS
VL: DIVMTQSPATLSLSPGERATLSCRASQSISDYLHWFQQKPHESPRLLIKYASQSISGIPARFSGSGSGSDFTLTISSLEPEDFAVYYCQNGHSFPLTFGPGTKVDIK
notes: Humanized with an IgG4 framework; ELISA used MAbs with humanized variable and mutated IgG4, kappa light chain detected; also called 09 antibody humanized
Binder B1 has a Kd [1] of roughly 27 pM.

B2: humanized 12 anti-NKp46 antibody (antibody, IgG4, V domains shown)
VH: EVQLQQSGAEVKKPGSSVKVSCKTSGYTFTEYSMHWVRQAPGKSLEWFGGISPNSGGTSYNQKFKGRATLTVDKSSSTAYMELSSLRSEDTAVYYCARRDFHSSFDYWGQGTTVTVSS
VL: DIVLTQSPATLSLSPGERATLSCRASQSISDYLHWFQQKPHESPRLLIKYASQSISGIPARFSGSGSGSDFTLTISSLEPEDFAVYYCQNGHSFPLTFGPGTKVDIK
notes: Humanized with an IgG4 framework; ELISA used MAbs with humanized variable and mutated IgG4, kappa light chain detected; also called 12 antibody humanized
In the case of B2, the Kd [1] is reported as roughly 25 pM.

B3: NKE1 (GPC3/NKp46/wt_IgG1), FLEX-NK tetravalent NKp46 engager directed against GPC3 (bispecific antibody)
heavy: not shown
light 1: DIVMTQSPATLSLSPGERATLSCRASQSISDYLHWFQQKPHESPRLLIKYASQSISGIPARFSGSGSGSDFTLTISSLEPEDFAVYYCQNGHSFPLTFGPGTKVDIKRTVAAPAVFIFPPSDEQLKSGTASVVCLLKNFYPREAKVQWKVDNALQSGNSQESVTEQDSKDSTYSLSSTLTLSKADYEKHKVYACEVTHQGLSSPVTKSFNRGEC
light 2: not shown
notes: Tetravalent; also called wildtype NKE1; copies: 2 + 2 + 2
B3 was tested, and the “fold higher affinity compared to human NKp46” value [2] was roughly 50 fold.

B4: mouse anti-NKp46 monoclonal antibody 09 (antibody, V domains shown)
VH: EVQLQQSGPELVKPGTSVKISCKTSGYTFTEYSMHWVKQSHGKSLEWFGGISPNSGGTSYNQKFKGKATLTVDKSSSTAYMELRSLTSEDSAVYYCARRDFHSSFDYWGQGTTLTVSS
VL: DIVMTQSPATLSVTPGDRVSLSCRASQSISDYLHWFQQKSHESPRLLIKYASQSISGIPSRFSGSGSGSDFTLSINSVEPEDVGVYYCQNGHSFPLTFGPGTKLELK
notes: Mouse hybridoma antibody raised in NKp46-deficient mice against NKp46-Ig; also called 09 antibody; mAb 09
With B4 the kon [3] was 6.22e+07 M⁻¹ s⁻¹.

B5: mouse anti-NKp46 monoclonal antibody 12 (antibody, V domains shown)
VH: EVQLQQSGPELVKPGTSVKISCKTSGYTFTEYSMHWVKQSHGKSLEWFGGISPNSGGTSYNQKFKGKATLTVDKSSSTAYMELRSLTSEDSAVYYCARRDFHSSFDYWGQGTTLTVSS
VL: DIVLTQSPATLSVTPGNSVSLSCRASQSISDYLHWFQQKSHESPRLLIKYASQSISGIPSRFSGSGSGSDFTLSINSVEPEDVGVYYCQNGHSFPLTFGPGTKLELK
notes: Mouse hybridoma antibody; also called 12 antibody; mAb 12
Work on B5 yielded a Kd [4] of 1670 pM.
